{"source": "patent US20220332804A1", "about": "(CSL INNOVATION, published 2022)", "binders": {"B1": {"name": "RF16-242 (antibody, human IgG4 S228P, lambda, V domains shown)", "VH": "EVQLLQSGAEVKKPGESLKISCKGSGYSFTSYWIGWVRQMPGKGLEWMGIIYPGDSDTRYSPSFQGQVTISADKSISTAYLQWSSLKASDTAMYYCARRGHYGDYFDYWGQGTLVTVSS", "VL": "SYELTQPPSVSVSPGQTARITCSGDALPKKYAYWYHQKSGQAPVLVIYEDRRRPSEIPERFSGSSSGTMATLTITGAQVEDEGVYFCYSRDRAGNQRVFGGGTQLTVLG", "notes": "pH-dependent anti-C2 antibody from a phage display library"}}, "assay_in_all_cases": "SPR, antibody captured, C2 as analyte;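 also: biacore at 37 °C, anti-C2 mAbs held by immobilised goat anti-human IgG, C2 alanine or serine mutants injected, double-referenced sensorgrams fitted to a 1:1 kinetic or steady-state model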", "key": {"human C2 H446A": {"target": "T1, human C2 H446A (human, UniProt P06681 21-752)", "T1 sequence": "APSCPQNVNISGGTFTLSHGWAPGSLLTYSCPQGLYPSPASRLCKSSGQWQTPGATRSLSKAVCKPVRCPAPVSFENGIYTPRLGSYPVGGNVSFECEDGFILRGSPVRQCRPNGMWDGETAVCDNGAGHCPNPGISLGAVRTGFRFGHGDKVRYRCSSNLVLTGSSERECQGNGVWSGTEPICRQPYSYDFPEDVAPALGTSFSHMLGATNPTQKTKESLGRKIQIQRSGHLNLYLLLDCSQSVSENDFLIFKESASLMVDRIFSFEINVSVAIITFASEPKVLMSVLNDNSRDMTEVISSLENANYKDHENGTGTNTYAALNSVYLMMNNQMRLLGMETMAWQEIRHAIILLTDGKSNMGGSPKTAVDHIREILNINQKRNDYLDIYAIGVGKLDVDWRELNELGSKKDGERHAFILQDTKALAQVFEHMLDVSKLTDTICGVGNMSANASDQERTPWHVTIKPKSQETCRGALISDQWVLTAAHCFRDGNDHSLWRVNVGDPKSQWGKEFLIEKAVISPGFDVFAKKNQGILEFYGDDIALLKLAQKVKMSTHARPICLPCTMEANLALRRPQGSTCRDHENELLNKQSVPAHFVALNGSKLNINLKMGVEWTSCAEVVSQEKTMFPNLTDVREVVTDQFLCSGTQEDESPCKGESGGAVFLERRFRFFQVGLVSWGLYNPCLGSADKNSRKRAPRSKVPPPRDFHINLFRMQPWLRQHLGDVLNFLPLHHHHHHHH"}, "human C2 M452A": {"target": "T2, human C2 M452A (human, UniProt P06681 21-752)", "T2 sequence": "T1 sequence with A426H, M432A"}, "human C2 V418A": {"target": "T3, human C2 V418A (human, UniProt P06681 21-752)", "T3 sequence": "T1 sequence with V398A, A426H"}, "human C2 R493A": {"target": "T4, human C2 R493A (human, UniProt P06681 21-752)", "T4 sequence": "T1 sequence with A426H, R473A"}}, "note": "Where a chain is given by its changes, count along the chain named.", "data": [{"binder": "B1", "values": [{"measurement": "Kd", "setting": "human C2 H446A", "result": 16.1, "unit": "nM"}, {"measurement": "Kd", "setting": "human C2 M452A", "result": 5.3, "unit": "nM"}, {"measurement": "Kd", "setting": "human C2 V418A", "result": 6.8, "unit": "nM"}, {"measurement": "Kd", "setting": "human C2 R493A", "result": 7.2, "unit": "nM"}]}]}
